Reference: patent US20030073236A1, “p193 proteins and nucleic acids, and uses thereof” (priority 1999, published 2003)

Biological target: p193myc (p193 protein harboring a C-terminal myc epitope tag, from CMV-p193myc) (mouse) (UniProt Q8VE73)
Assay: cell-based or functional assay

SV40 Large T Antigen (T-Ag) (from UniProt P03070 1-708)
co-localization to the cytoplasm in co-transfected NIH-3T3 cells (immune cytologic analyses): 63%
